For test [1], the target named is T1, YEATS domain of Yaf9 (WT, aa 8–171) (Saccharomyces cerevisiae, UniProt P53930).
T1 sequence (P53930 8-171): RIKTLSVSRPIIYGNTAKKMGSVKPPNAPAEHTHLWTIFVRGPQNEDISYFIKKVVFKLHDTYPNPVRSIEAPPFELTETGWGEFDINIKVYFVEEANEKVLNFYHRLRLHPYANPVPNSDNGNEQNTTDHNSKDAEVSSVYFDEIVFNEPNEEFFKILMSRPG
Nature of the test: 1H,15N HSQC NMR titration, Yaf9 YEATS WT. Conditions: free acetyllysine (NMR) vs H3K27ac peptide. In kind it is binding.

For test [2], the target named is YEATS domain of Yaf9 (aa 8–171), wild type (S. cerevisiae) (UniProt P53930). Put plainly: other fluorescence titration.
Test [3] addresses T2, YEATS domain of Taf14 (aa 1–137), wild type (yeast, UniProt P35189 1-137).
T2 sequence (looked up): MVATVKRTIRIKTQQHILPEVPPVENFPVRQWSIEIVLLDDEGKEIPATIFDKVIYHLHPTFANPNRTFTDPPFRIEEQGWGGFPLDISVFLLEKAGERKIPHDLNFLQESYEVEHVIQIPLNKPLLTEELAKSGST
Put plainly: other fluorescence titration.

Test [4] has as its target T3, G83E mutant of Taf14-YEATS (aa 1–137) (yeast, UniProt P35189 1-137, G83E).
T3 sequence (looked up): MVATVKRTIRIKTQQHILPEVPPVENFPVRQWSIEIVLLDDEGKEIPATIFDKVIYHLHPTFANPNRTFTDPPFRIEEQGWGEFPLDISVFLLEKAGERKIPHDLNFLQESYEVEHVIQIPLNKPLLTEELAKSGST
Put plainly: other fluorescence titration.

The target in test [5] is T4, D104R mutant of Taf14-YEATS (aa 1–137) (yeast, UniProt P35189 1-137, D104R).
T4 sequence (looked up): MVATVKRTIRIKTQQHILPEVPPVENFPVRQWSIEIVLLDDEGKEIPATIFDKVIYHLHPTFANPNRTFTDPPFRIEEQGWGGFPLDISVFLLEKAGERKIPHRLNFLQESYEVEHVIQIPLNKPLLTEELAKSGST
Put plainly: other fluorescence titration.

Test [6] addresses T5, AF9 YEATS domain (aa 1–138), wild type (human, UniProt P42568 1-138).
T5 sequence (looked up): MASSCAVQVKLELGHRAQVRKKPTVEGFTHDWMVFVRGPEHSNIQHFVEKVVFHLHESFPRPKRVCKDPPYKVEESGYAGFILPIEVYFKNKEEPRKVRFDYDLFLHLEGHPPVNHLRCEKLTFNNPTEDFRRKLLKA
Nature of the test: other fluorescence titration.

Test [7] deals with T6, E91G mutant of Yaf9-YEATS (aa 8–171) (S. cerevisiae, UniProt P53930 8-171, E91G).
T6 sequence (looked up): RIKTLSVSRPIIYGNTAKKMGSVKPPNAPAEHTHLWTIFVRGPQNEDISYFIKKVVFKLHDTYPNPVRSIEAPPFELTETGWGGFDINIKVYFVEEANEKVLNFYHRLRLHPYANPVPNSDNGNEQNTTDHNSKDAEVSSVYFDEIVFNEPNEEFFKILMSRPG
Put plainly: other fluorescence titration.

Where no end group is shown, it is not given here.

For the molecule `CC(=O)NCCCC[C@H](N)C(=O)O` [Kac, acetyllysine], the “binding of free acetyllysine weaker” value in test [1] is listed as “over 200 fold”.

Take “histone H3K27ac peptide (aa 21–31 of H3) (from UniProt P68431 22-32)”: the equilibrium dissociation constant (Kd) (in general, the free concentration of one partner at which half of the binding sites on the other are occupied at equilibrium, for simple one-to-one binding) in test [2] amounted to 10 µM. This lies in the double-digit micromolar range.

For QTARK(Ac)STGG (peptide, UniProt P68431 6-14, looked up, also: biotinylated, site not given here) [histone H3K9ac peptide (aa 5–13 of H3)], the binding result in test [3], in test [5] and in test [6] was “binds” throughout. Also, the “fold decrease in binding against WT Taf14-YEATS” value in test [4] was approximately 2 fold. Moreover, the “fold increase in binding against WT Yaf9-YEATS” value in test [7] was approximately 1.5 fold.

The values are drawn from article PMC5758897 (Nucleic Acids Research, 2017).
